From publication doi:10.1101/2024.06.16.598887 (bioRxiv, 2024)
Where two headings read alike, the source gives them in different places.

Legend:
[1] = molecular target: T1, pig (Sus scrofa) skeletal muscle alpha-actin (pig (Sus scrofa), UniProt P68137 1-377); assay: ITC
[2] = molecular target: T1, pig (Sus scrofa) skeletal muscle …; assay: ITC; remark: listed apart in the source

B1: Anopheles gambiae actin depolymerizing factor (natural protein)
chain: MASGVTVSDVCKTTYEEIKKDKKHRYVIFYIRDEKQIDVEVIGDRNAEYDSFLEDIQKGGPGECRYGLFDFEYMHQCQGTSESSKKQKLFLMSWCPDTAKVKKKMLYSSSFDALKKSLVGVQKYIQATDLSEASREAVEEKLRATDRQ
Kd [1]: 0.8 nM | dH [1]: -13.6 ± 0.1 kcal/mol | stoichiometry N [1]: ~1 | Kd [2]: 1.6 nM | dH [2]: -14.1 ± 0.1 kcal/mol
